Results as given in publication PMC2194124 (The Journal of Experimental Medicine, 2003).

Target: Isolated Mac-1 (αMβ2, CD11b/CD18) (UniProt P11215 17-1152; P05107 23-769)
Assay: ELISA

B1: Recombinant soluble mouse RAGE (receptor)
chain: GQNITARIGEPLVLSCKGAPKKPPQQLEWKLNTGRTEAWKVLSPQGGPWDSVARILPNGSLLLPATGIVDEGTFRCRATNRRGKEVKSNYRVRVYQIPGKPEIVDPASELTASVPNKVGTCVSEGSYPAGTLSWHLDGKLLIPDGKETLVKEETRRHPETGLFTLRSELTVIPTQGGTHPTFSCSFSLGLPRRRPLNTAPIQLRVREPGPPEGIQLLVEPEGGIVAPGGTVTLTCAISAQPPPQVHWIKDGAPLPLAPSPVLLLPEVGHEDEGTYSCVATHPSHGPQESPPVSIRVTETGDEGPAEGSVGESGLGTLA
IC50: ~175 nM
